Three substances from publication PMC6547453 can be followed below.

Test [1] deals with RspWYL1 double mutant I108D/I109D (Ruminococcus sp.). The experiment in a line: SEC; Superdex 200 gel filtration column, compared with a protein molecular mass standard mixture.
The target of test [2] is RspWYL1 double mutant Y386A/N387A (Ruminococcus sp.). The test is described as above.
Test [3] concerns the target full-length RspWYL1 (Ruminococcus sp. WYL1, amino acids 1–392) (Ruminococcus sp.). Briefly: SEC-MALS; HPLC SEC-MALS, AdvanceBio SEC 300A column, 50 mM Tris-HCl pH 7.5, 150 mM NaCl, 1 mM TCEP; RspWYL1 loaded at 10 mg/ml. On the technique in general: In gel filtration, larger molecules generally elute earlier.
Test [4] shares this target. Briefly: SEC; Superdex 200 gel filtration column, compared with a protein molecular mass standard mixture.

As to “RspWYL1 double mutant I108D/I109D (natural protein)”, the stoichiometry N in test [1] turned out to be 2.

Turning to “RspWYL1 double mutant Y386A/N387A (natural protein)”, the stoichiometry N in test [2] was 2. Turning to “full-length RspWYL1 (Ruminococcus sp. WYL1, amino acids 1–392) (natural protein)”, the stoichiometry N in test [3] and in test [4] was 2 throughout.

As a reminder, the stoichiometry N is the number of molecules, sites or subunits per partner or assembly.
